Reference: patent US20240026407A1, “MODIFICATION OF SAPONINS” (GLAXOSMITHKLINE BIOLOGICALS SA, priority 2020, published 2024)

How the values were obtained:
[1] = Example 10: deglucosylation of saponins in crude bark extract (50%) using WT and engineered glucosidases G1 to G5; assay type: biochemical, Quillaja saponaria; details: 50% CBE, 35 degC; for % Right Peak: starting CBE 26; for % Left Peak: starting CBE 30; for % Middle Peak: starting CBE 44
Protocol: Lyophilised powders from clarified cell lysate expressing glucosidases (from Example 8 WT glucosidase and engineered glucosidase polypeptides G1 to G5) and rhamnosidases (from Example 9 WT rhamnosidase and engineered rhamnosidase polypeptides R1 to R5) were dissolved in 200 mM sodium acetate aqueous solution at pH 5.8 to prepare the enzyme solutions at 4 fold the final reaction concentration as shown in Tables 19 and 20.
Each glucosidase solution was combined with an equal volume of 200 mM sodium acetate aqueous solution at pH 5.8 and separately with an equal volume of 200 mM sodium acetate aqueous solution at pH 5.8 containing 2 mg/ml rhamnosidase R5. This is a sufficient loading of rhamnosidase to effect complete hydrolysis of the relevant rhamnose moiety within 4 hours.
CBE was adjusted to pH of 6.0 to 6.2 with 2M sodium hydroxide and an equal volume added to the enzyme solution to prepare the reaction mix (i.e. 50% CBE concentration in reaction mix) and the concentration of glucosidase and/or rhamnosidase is shown in Tables 19 and 20. The reaction mix was heated to 35 degC for the time indicated in Tables 19 and 20, after which the reaction was quenched by addition of an equal volume of MeCN containing 2% acetic acid and shaken at room temperature for 10 mins prior to centrifugation (10 min, 4 degC) to remove particulates. Samples were analysed by UV HPLC using method of Experiment 4-4.
The change in composition of the Left, Middle and Right peaks is shown in Tables 19 and 20. The composition changes by the action of the enzymes depending on the presence or absence of the partner enzyme. The extent of reaction is proportional to the enzyme concentration and the reaction time under these conditions. The tables show data for enzyme concentrations and the reaction times providing for equivalent extents of reaction. The improvement resulting from the mutations introduced for each variant is equal to the fold change in enzyme concentration×time (i.e. fold improvement=(enzyme concentration×time) for preceding variant÷(enzyme concentration×time) for later variant). A cumulative fold improvement over the original enzyme variant is calculated by the product of the individual fold improvements.

[2] = Example 8: screening of glucosidase variants for deglycosylation of saponins in crude bark extract (FIOP); assay type: biochemical, Quillaja saponaria; details: for Cumulative FIOP (cf WT): estimate; for FIOP: fold improvement over parent
Protocol: Libraries of genetic variants encoding mutations in the wild type Modestobacter marinus glucosidase (SEQ ID No. 262) were prepared using molecular biology techniques, enzymes were prepared linked to an N-terminally located His-tag. Single monoclonal colonies were grown in 400 ul of expression medium and protein expressed. Cell pellets were lysed in 200 ul of the relevant buffer (Table 16)
Lysate was diluted appropriately in the relevant buffer to allow a lysate loading of the indicated % loading (1% loading corresponds to use of 2 ul original lysate in a 200 ul reaction). In some experiments a rhamnosidase was also present during the screening reaction (and also in controls, negating any impact on results).
Crude bark extract (CBE) obtained by aqueous extraction of Quillaja saponaria and containing at least 2.80 mg/ml QS-21 (by HPLC-UV). The pH of CBE was adjusted to pH 6 by dropwise addition of 2M NaOH with stirring. The relevant concentration of the relevant glucosidase was added. The appropriate relative volume of pH 6 CBE (160 ul (for 80%) or 150 ul (for 75%)) was added to each well of the reaction plate. The reaction plate was sealed and incubated at the relevant temperature with shaking overnight for between 18 and 22 hours.
The reaction plate was quenched by adding 200 uL of MeCN (2% AcOH, 1 mg/mL hexanophenone) to each well of the plates. The quenched reaction plate was re-sealed and incubated at 20 deg C. with shaking for 10 min. The reaction plate was then centrifuged (10 min, 4 degC).
200 uL was transferred from each well of the quenched plate to the corresponding wells of a fresh 96 well plate and sealed. The plate was analysed by UV HPLC with the method below:
A negative control (a lysate not expressing test enzymes) and a positive control (expressing the parent comparator—wild type or previous variant as appropriate). Fold improvement over parent (FIOP) for the glucosidase (shorter method) is calculated as follows:
% right peak=100*right peak area/(right peak area+left peak area)
Average % right peak area is calculated for negative controls (per plate) and subtracted from all wells to give the increase in % right peak for each well above average negative control Average increase in % right peak is calculated for positive controls per plate
FIOP=observed increase in % right peak divided by average positive control increase

[3] = glucosidase 0.1 mg/ml + rhamnosidase R5 0.5 mg/ml, 4 h
[4] = glucosidase 0.1 mg/ml, no rhamnosidase, 4 h
[5] = screen temp 35, pH 6, lysate loading 0.14%, CBE loading 75%, 100 mM Sodium acetate, Rham Present
[6] = glucosidase 1.56 mg/ml + rhamnosidase R5 0.5 mg/ml, 7 h
[7] = glucosidase 1.56 mg/ml, no rhamnosidase, 7 h
[8] = screen temp 20, pH 6, lysate loading 10%, CBE loading 80%, 100 mM Potassium phosphate, Rham None

B1: Variant G5: engineered glucosidase polypeptide, variant of Modestobacter marinus glucosidase SEQ ID No. 262 (protein)
chain: MNPASSTRTDTMTDTTARTDSRLTDALAALSLEQKVQLLTGRDYWNTWPIEEIGLRRILVSDGPSGVRGEVWDERDPSLNLPSATALASAWDPDIARRYGAAAAVEARRKGVDVVLGPTINLHRSPLGGRHFEAFSEDPVLTAELAAAYVTGVQDNGVGATPKHYVANDFETDRFTVDVRADERTLRELYLLAFEKAVTEARAWLVMSAYNGINGATATENDLLETPLNSEWGFDGVVVSDWTAVRSLESARSSQDLVMPGPLGPWGDALVEAVRTGAIDESVVDRKVLRILTLAQRVGALEGSPAIDPVWVEDGVALAREAAVEGTVLLENRDELPWDATSLRKVAVIGNNAAWAMTQGGGSANVCPEYTVSPLDGVRAALPDAEVSYSLGAVVRDGLVELPLAELTNPVTGGPGLRARFLTADGAELFGEDRRKSVLVYQGGDAPIAAAATYELTARWTPTESQTVRLGFACFGAAQLYVDGELLVESDLQPSGTDLGAAFMNPLTASAEVELVAGKPVDVRLVHDLSAKEGFAAHALILQLGTEPAEVDEDALIAEAAEAAEAADVVLVVVGTNSIVESEGYDRESLSLPGRQDDLVRAVVAANPRTVVLVNAGAPVLLPWRDDVAALLLGWFGGQEFGNAVADVLLGVAEPGGRLPTTWPAAEADVPVLSCTPVDGVVEYTEGIHIGYRAWLRSGATPAYWFGSGQGYTCVELTGVEAPSRARPGEIVTVSVEVANRGERDGKQVVQVYAEKPDSTVDRPVRWLVGSAPVRVPAGQTAQVEVAVPTRYLAHWAGGWQYEPGVYRLRVGTTAVELPLETTLEVSA
modifications: Seq ID No. 262 with mutations F44Y, V263L, R357M, T365N, F442Q, L474C, I475F, F541I, A355W, L367C, Q396R
[1]; 2 mg/ml glucosidase G5 solution (before mixing with rhamnosidase solution and CBE)
  time to complete hydrolysis of the relevant glucose moiety: ≤ 4 h
[1]; from enzyme concentration x time for equivalent extent of reaction
  cumulative fold improvement over WT glucosidase: approximately 800 fold
[1]; [3]
  % change in Left Peak: −34%
  % change in Middle Peak: −83%
  % change in Right Peak: 280%
  Cumulative Fold improvement in primary enzyme loading × time: 834
  Fold improvement in primary enzyme loading × time: 6.5
  % Right Peak: 73%
  % Left Peak: 20%
  % Middle Peak: 7%
[1]; [4]
  % change in Left Peak: −11%
  % change in Middle Peak: −56%
  % change in Right Peak: 208%
  Cumulative Fold improvement in primary enzyme loading × time: 834
  Fold improvement in primary enzyme loading × time: 6.5
  % Right Peak: 54%
  % Left Peak: 27%
  % Middle Peak: 19%
[2]; [5]
  Cumulative FIOP (cf WT): 900
  FIOP: 3

B2: Variant G2: engineered glucosidase polypeptide, variant of Modestobacter marinus glucosidase SEQ ID No. 262 (protein)
chain: MNPASSTRTDTMTDTTARTDSRLTDALAALSLEQKVQLLTGRDFWNTWPIEEIGLRRILVSDGPSGVRGEVWDERDPSLNLPSATALASAWDPDIARRYGAAAAVEARRKGVDVVLGPTINLHRSPLGGRHFEAFSEDPVLTAELAAAYVTGVQDNGVGATPKHYVANDFETDRFTVDVRADERTLRELYLLAFEKAVTEARAWLVMSAYNGINGATATENDLLETPLNSEWGFDGVVVSDWTAVRSLESARSSQDLVMPGPVGPWGDALVEAVRTGAIDESVVDRKVLRILTLAQRVGALEGSPAIDPVWVEDGVALAREAAVEGTVLLENRDELPWDATSLRKVAVIGNNAAAAMTQGGGSANVLPEYTVSPLDGVRAALPDAEVSYSLGAVVQDGLVELPLAELTNPVTGGPGLRARFLTADGAELFGEDRRKSVLVYFGGDAPIAAAATYELTARWTPTESQTVRLGFFCFGAAQLYVDGELLVESDLQPSGTDLGAAFMNPLTASAEVELVAGKPVDVRLVHDLSAKEGFAAHALFLQLGTEPAEVDEDALIAEAAEAAEAADVVLVVVGTNSIVESEGYDRESLSLPGRQDDLVRAVVAANPRTVVLVNAGAPVLLPWRDDVAALLLGWFGGQEFGNAVADVLLGVAEPGGRLPTTWPAAEADVPVLSCTPVDGVVEYTEGIHIGYRAWLRSGATPAYWFGSGQGYTCVELTGVEAPSRARPGEIVTVSVEVANRGERDGKQVVQVYAEKPDSTVDRPVRWLVGSAPVRVPAGQTAQVEVAVPTRYLAHWAGGWQYEPGVYRLRVGTTAVELPLETTLEVSA
modifications: Seq ID No. 262 with mutations T365N, R357M, A473F, L474C, I475F
[1]; [6]
  % change in Left Peak: −26%
  % change in Middle Peak: −82%
  % change in Right Peak: 269%
  Cumulative Fold improvement in primary enzyme loading × time: 32
  Fold improvement in primary enzyme loading × time: 4.0
  % Right Peak: 70%
  % Left Peak: 22%
  % Middle Peak: 8%
[1]; [7]
  % change in Left Peak: −15%
  % change in Middle Peak: −57%
  % change in Right Peak: 213%
  Cumulative Fold improvement in primary enzyme loading × time: 32
  Fold improvement in primary enzyme loading × time: 4.0
  % Right Peak: 55%
  % Left Peak: 26%
  % Middle Peak: 19%
[2]; [8]
  Cumulative FIOP (cf WT): 50
  FIOP: 10
